Data as given in the nanobody polyreactivity screen of Harvey et al. (2022).

Experiment: yeast display, Sf9 membrane polyspecificity reagent, FACS + sequencing; frameworks hold sequencing errors
Outline: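 Using colony PCR, genes from sorted yeast display clones were amplified, then sequenced on MiSeq at 2 × 250 and filtered by CDR length. The clones had been stained with 10% biotinylated, detergent-solubilized Sf9 membrane reagent for 1 hour at 4 °C and sorted by FACS into low and high (top ~1%) gates on anti-HA and streptavidin fluorescence. Polyreactivity labels come from the gate of origin.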

## QVQLVESGGGLVQAGGSLRLSCAASGFTFTAYAMGWYRQAPGKERELVAAINWSGSRTYYADSVKGRFTISRDNAKNNVYLKMNSLKPEDTAVYYCNTATSKSSYRHYDYWGQGTQVTVSS
  polyreactivity (PSR sort gate): high polyreactivity

## QVQLVESVGGLVQAGGSLRLSCAASGSTFYANAMGWYRQAPGKERELVAAITWGDASTYYADSVKGRFTISRDNAKNTVYLQMNSLKPEDTAVYYCAVDESYGSSSDMDYWGQGTQVTVSS
  polyreactivity (PSR sort gate): low polyreactivity

## QVQLVESGGGLVQAGGSLRLSCAASGRIFDYYTMGWSRQAPGKVRELVAAISSGGRTYYADSVKGRFTISRDNAKNTVYLQMNSLKPEDTAVYYCNALDTRHTYTYTGGKRFPYDHWGQGTQVTVSS
  polyreactivity (PSR sort gate): low polyreactivity

## QVQLVESGGGLVQAGGSLRLSCAASGLTFAINTMGWYRPAPGTERELVAAITGSGGSTYYADSVKGRFTISRDNAKNTVYLQMNSLKPEDTAVYDCAAELLYVQGYAMDYWGQGTQVTVSS
  polyreactivity (PSR sort gate): low polyreactivity

## QVQLVESGGGLVQAGGSLRLSCAASGGTFSFYTMGWYRQAPGKERELVAAISRSGGRTYYADSVKGRFTISRDHAQNTVYLQMNSLKPEDTAVYYCAAERFSNIYTTMGYWGQGTQVTVSS
  polyreactivity (PSR sort gate): high polyreactivity

## QVQLVESGGGLVQAGGSLRLSCAASGSTFRYYAMGWYRQAPGKERELVAAISGSGGRTYYADSVKGRFTISRDNAKNTVYLQMNSLKPEDTAVYYCAAQCGYYDSAYGSWGQGTQVTVSS
  polyreactivity (PSR sort gate): high polyreactivity

## QVQLVESGGGLVQAGGSLRLSCAASGITFVDNAMGWYRQAPGKERELVAAISFSGDTTYYADSVKGRFTISRDNEKNTVYLQMNSLKPEDTAVYYCAAEYYYTWVYQYWEMDYWGQGTQVTVSS
  polyreactivity (PSR sort gate): low polyreactivity

## QVQLVESGGGLVQAGGSLRLSCAASGITFVYYAMGWYRQAPGKERELVAAISKNGGSTYYADSVKGRFTISRDNAMNTVYLQMNSLKPEDTAVYYCAAEEGYPWVRYNYWGQGPQVTVSS
  polyreactivity (PSR sort gate): high polyreactivity

## QVQLVESGGGLVQAGGSLRLSCAASGITFIGYAMGWYRQAPGKERELVAAITTNGGGTYYADSVKWRFTISRDNAKKTVYLQMNSLKPEDTAVYYCNAVKQRSSIFDYWGQGSQVTVSS
  polyreactivity (PSR sort gate): low polyreactivity

## QVQLVESGGGLVQAGGSLRLSCAASGRIFRRNAMGWYRQAPGKEREFVAAISYRGGSTYYADSVKGRFTISRDNAKNTVYLQMNSLKPEDTAVYYCAATGYGSAYNPYDHWGQGTQVTVSS
  polyreactivity (PSR sort gate): high polyreactivity

## QVQLVESGGGLVQAGGSLRLSCAASGRSFYNYAMGWYRQAPGKERELVAAISGSGGSTYYADSVKGRFTISRDNAKNSVYLQMNSLKPEDTAVYYCSTSGPQYYSRNFDSWGQGTQVTVSS
  polyreactivity (PSR sort gate): low polyreactivity

## QVQLVESGGGLVQAGGSLRLSCAASGFIFVPYAMGWYRQAPGKERELVARITWSGGRTYYADSVKGRFTISRDNAKNTVYLQMNSLKPEDTAVYYCNADVYGFDYWGQGTQVTVSS
  polyreactivity (PSR sort gate): high polyreactivity

## QVQLVESGGGLVQAGGSLRISCAASGFIFTLYAMGWYRQAPGKERELVAAISKRGGSTNYADSVKGRFTISRDNAKNTVYLLMNSLKPEDTAVYYCANARPGFLYDHWGQGTQLTVSS
  polyreactivity (PSR sort gate): high polyreactivity

## QVQLVESGGGLVQAGGSLRLSCAASGFTFDGYGMGWYRHAPGKERELVAVITSGGSTKYADSVKGRFTISRDNAKNTVYLQMNSLKPEDTAVYYCNVVGGRPNPYYDEMDYWGQGPQVTVSS
  polyreactivity (PSR sort gate): low polyreactivity

## QVQLVESGGGLVQAGGSLRLSCAASGSTFYWYALGWYRQAPGKERELVASITWIGGSNTYYADSVKGRFTISRDNAKNTVYLQMNSLKPEDTAVYYCAADPGVYGQYLYSPWGYDYWGQGTQVTVSS
  polyreactivity (PSR sort gate): high polyreactivity

## QVQLVESGGGLVQVGGSLRLSCAASGRTFWWYAMGWYRQAPGKERELVAAISRGSTNYADSVKGRFTISRDNAKNTVYLQMNSLKPEDTAVYYCKAVSLYQSHDYDYWGQGTQVTVSS
  polyreactivity (PSR sort gate): low polyreactivity

## QVQLVESGGGLVQAGGSLRLSCAASGSTFGYYAMGWYRQAPGKERELVAAISYIGGSTYYADSVKGRFTISRDNANNTDYLQMNSQKPEDTAVYYCAAQYVTYAYDYWGQGTQVTVSS
  polyreactivity (PSR sort gate): low polyreactivity

## QVQLVESGGGLVQAGGSLRLSCAASGRIFNVYAMGWYRQAPGKERELVASITSAGSTYYADSVKGRFTISRDNAKNTVYLQMNSLKPEDTAVYYCAADSYSVYYYTYDSWGQGTQVTVSS
  polyreactivity (PSR sort gate): low polyreactivity

## QVQLVESGGGLVQAGGILRLSCAASGSIFPNYAMGWYRQAPGKEREFVAAISSSGGSTYYADYVKGRFTISRENAKNTVYLQMNSLKPDDTAVYYCAAAYVGYYYSRGFDYWGQGTQVTVSS
  polyreactivity (PSR sort gate): high polyreactivity

## QVQLVESGGGLVQAGGSLRLTCAASGSIFTKYAMGWYRQAPGKERELVAGISSSGCSTYYADSVKGRFTISRDYAKNTVYLQMNSLKPEDTAVYYCAARGYYKYDYWGQGTQVTVSS
  polyreactivity (PSR sort gate): high polyreactivity

## QVQLVESGGGLVQAGGSLRLSCAASGFIFPTNTMGWYRQAPGKEREFVARITRSGTNTYYADSVKGRFTISRDNAKNTVYLQMNSLKPEDTAVYYCARRGTSSYRRYWLDSASNMDYWGQGTQVTVSS
  polyreactivity (PSR sort gate): high polyreactivity

## QDQLVESGGGLVQAGGSLRLSCAASGSTFTPNALGWYRQPPGKQRELVAAISTRGSSTYYADSVKGRFTISRDNAKNTVYLQMNRLKPEDTAVYSCAAPFKYGLSYGSWYGYCGQGTQVTVSS
  polyreactivity (PSR sort gate): high polyreactivity

## QVQLVESGGGLVQAGGSLRLSCAASGSIFKPYAMGWYRQAPGKERELVAAINRGGTSTYYADSVKGRFTISRDNAKNTVYLQMISLKPEDTAVYYCAAPNRYSVPMYYWGQGTQVTVSS
  polyreactivity (PSR sort gate): low polyreactivity

## QVQLVESAGGLVQAGGSLRLSSDASGFTFYRYAIGWYIQAPGKEREFVAAISWRGTSTYYADSVKGRFKISRDNANNTVYLQMNSLKPEETAVYYCTARRDICWGYHMDYWGQGTQVTVSS
  polyreactivity (PSR sort gate): high polyreactivity

## QVQLLESGGVLDQAGGSLRLTCAASGSIFFTNAMGWYRQAPGKERELVAAIRQSGGSTFYADSVKGRFTISRDNAKNTVYLQLNSLKPEDTAVFYCNADGRHKWQYSSYDYWGQGTQLTVSS
  polyreactivity (PSR sort gate): low polyreactivity

## QVQLVESGGGLVQAGGRLRLSCAASGFIFTDNGMGWYRQAPGKERELVAAINSDGSTYYADSVKGRFTISRDNAKNTVYLQMNSLKPEATAVYYCAVDGSITEIYLPGYGYGYWGQGTQVTVSS
  polyreactivity (PSR sort gate): low polyreactivity

## QVQLVESGVGLVQAGGSLRLSCAASGSTFTANAMGLYRQAPGKERELVAAISSTGGSTYYADSVKGRFTISRDNEKNTVYLQMNSLKPEDTAVYYCNKDGPYQVITYDYWGQGTKVTVSS
  polyreactivity (PSR sort gate): high polyreactivity

## QVQLVESGGGLVQAGGSLRLSCAASGSIFWNYTMGWYRPAPGKERELVAAITWSGSSTYYADSVKGRFTISRDNAKNTVYLQMNSLKPEDTAVYYCAKDGSGTYEFDYWGQGTQVTVSS
  polyreactivity (PSR sort gate): low polyreactivity

## QVQLVESGGGLVQAGGSLRLSCAASGFTFNWYAMGWYRQAPGKERELVAAINSSGGNTYYADSVKGRFTISRDNAKNTVYLQMNSLKPEDTAVYYCAALLWGYVAFDYWGQGTQVTVSS
  polyreactivity (PSR sort gate): high polyreactivity

## QVQLVESGGGLVQAGGSLRLSCAASGGIFDFYAMGWYRQAPGKERELVAAITRSGSSTFYADSVKGRFTISRDNAKNTVYLQMNSLKPEDTAVYYCATRPTSDFVKRRVYEWLDYWGQGTQVTVSS
  polyreactivity (PSR sort gate): low polyreactivity

## QVHLVESGGGLLQAGGSLRLSSAASGSTFPFNAMGWYRPAPGKERELVAAIDDNGGTTYYADSVKGRFTISRDNAKNTFYLQMISLKPEDPAVYYCAAEVDTVRDCVQGMDYCGQGTQVTVSS
  polyreactivity (PSR sort gate): low polyreactivity

## QVQLVESGGGLVQAGGRLRLSCAASGSIFAGYVMGWYRQAPGKERELVAAISKSGGSTYYADSVKGRFTISRDNAKNTVSLQMNSLKPEDTAVYYSAKDHYYVDYDYWGQGTQVTVSS
  polyreactivity (PSR sort gate): high polyreactivity

## QVQIVESGGGLVQAGGSLRLSCAASGSIFARMAMGWYRQAPGKEWELVAAITTGGITNYADSLKGLFTISRDNAKNTVYLQMNSLKPDDTAVYYCAATSWRYQQSTRYKGRRYYSWGQGTQVTVSS
  polyreactivity (PSR sort gate): high polyreactivity

## QVQLVESGGGLVQAGGSLRLSCAPSGRTFYPNVMGWSRQAPGKERELVAAITSGGSTYYADSVKGRFTISRDNAKNTVYLQMNSLKPEDTAVYYCAVAYAGGGSRKYDYWGQGTQVTVSS
  polyreactivity (PSR sort gate): low polyreactivity

## QVQLVESGGGLVQAGGSLRLSCAASGIIFWYYAMGWYRQAPGIERELVAAISQSGGRTYYADSVKGRFTISRDNAKKTVYLQMNSLKPEDTAVYYCAAEPYTGYGYWGQGTQVTVSS
  polyreactivity (PSR sort gate): high polyreactivity

## QVQLQESGGGLVQAGGSLRLGCAASGNISDAGYMGWYRQAPGKEREFVAAIAAGSNTNYADSVKGRFTISRDNAKNTVYLQMNSLKPEDTAVFYCAVASYARVQYQYWGQGTQVTVNS
  polyreactivity (PSR sort gate): low polyreactivity

## QVQLVESGGGLVQAGGSLRLSCAASGRTFYWNAMGWYRQAPGKERELVASINGGGSTYYADSVKGRFTISRDNAKNTVYLKMNSLKPEDTAVYYCNTSYIIWYDSWGQGTQVTVSS
  polyreactivity (PSR sort gate): low polyreactivity

## QVQLVESGGGLVQAGGSLRLSCAASGFIFRHNAMGWYRPAPGTEREFVAAISISGGSTYYADSVKGRFTISRDNAKNTVYLQMNSLKPEDTAVYYCNARSLGNTYLLYDYWGQGTQVTVSS
  polyreactivity (PSR sort gate): low polyreactivity

## QVQLVETGGGLVQAGGSLRLSCAPSGSIYYINAMGWYRQAPGKERELVAAIRSGGSTNYADSVKGLFTISRDNAKNTVYLQMNSLKPEDTAVYYCNARSRSYVPYYYWGQGTQVTVSS
  polyreactivity (PSR sort gate): high polyreactivity

## QVQLVESGAGLVQAGGSLLLSSAPSASTFVSYAMGWYRQAPGKERELVAAISSGGGSTYYADSVKGRFTISRDNAKNTVYLQMNILKPEDTAVYYCAARGYAYRAQYGYWGQGTQVTVSS
  polyreactivity (PSR sort gate): high polyreactivity

## QVQLVESGGGLVQAGGSLRLSCPASGSIFQGNAMGWYRQAPGKERELVAAISWSGDSTYYADSVKGRFTISRDNAKNTVYLQMNSLKPEDTAVYYCNAEWTRDFYEYDYWGQGTQVTVSS
  polyreactivity (PSR sort gate): low polyreactivity

## QVQLVESGGGLVQAGGSLRLSCAASGRIFVGNAMGRYRQAPGKERELVAAISRSGGRTYYADSVKGRFTISRDNAKNTVYLQMNSLKPEDTAVYYCNTRVYAGKYDYWGQGTQVTVSS
  polyreactivity (PSR sort gate): high polyreactivity

## QVQLVESGGGLVQAGGRLRLSCAASGSTFPTNVMGWYRQAPGKERELVAAITKRGSITYYADSVKGRFTISRDNAKNTVYLQMNSLKPEDTAVYYCAARKVAVRGYGYWGQGTQVTVSS
  polyreactivity (PSR sort gate): high polyreactivity
